Experimental data: patent US20030195337A1 (IMMUNEX, published 2003)

B3: ULBP3, full length, expressed on transfected CV-1 cells (ligand)
chain: DAHSLWYNFTIIHLPRHGQQWCEVQSQVDQKNFLSYDCGSDKVLSMGHLEEQLYATDAWGKQLEMLREVGQRLRLELADTELEDFTPSGPLTLQVRMSCECEADGYIRGSWQFSFDGRKFLLFDSNNRKWTVVHAGARRMKEKWEKDSGLTTFFKMVSMRDCKSWLRDFLMHRKKRLEPTAPPTMAPG
notes: Full length cDNA in pDC409, expressed on CV-1 cells

Legend:
[1] = biological target: human NK cells (primary, stimulated overnight with recombinant human IL-15) (human); experiment: flow cytometry; 1 ug protein on about one million IL-15 stimulated human NK cells, labeled anti-human IgG Fc; no protein control = 6
[2] = biological target: ULBP2, full length, expressed on transfected CV-1 cells (human) (UniProt Q9BZM5); experiment: flow cytometry; Fc fusion protein on CV-1 cells transfected with full length ULBP; +++ = more than two logs above background
[3] = biological target: ULBP1, full length, expressed on transfected CV-1 cells (human) (UniProt Q9BZM6); experiment: as above
[4] = biological target: ULBP3, full length, expressed on transfected CV-1 cells (human) (UniProt Q9BZM4); experiment: as above
[5] = biological target: ULBP4, full length, expressed on transfected CV-1 cells (human) (UniProt Q8TD07); experiment: as above
UL16-Fc fusion protein = biological target: T1, UL16-Fc fusion protein (human cytomegalovirus (HCMV); human, UniProt P16757 27-184; P01857 99-330 = IgG part); experiment: flow cytometry; Fc fusion protein on CV-1 cells transfected with full length ULBP, PE anti-human IgG Fc
T1 construct: extracellular domain;domain: modified human IgG1 Fc region; Soluble fusion protein prepared as in Cosman et al. 2001

[6] = biological target: B3; experiment: as above

T1 sequence (P16757 27-184, tags or fused parts left off): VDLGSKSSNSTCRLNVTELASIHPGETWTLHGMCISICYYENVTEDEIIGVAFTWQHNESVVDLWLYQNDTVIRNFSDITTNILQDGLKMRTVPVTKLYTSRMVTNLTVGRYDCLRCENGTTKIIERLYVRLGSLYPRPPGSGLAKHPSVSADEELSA
ULBP2, full length, expressed on transfected CV-1 cells (human), sequence (Q9BZM5 26-217 limits assumed): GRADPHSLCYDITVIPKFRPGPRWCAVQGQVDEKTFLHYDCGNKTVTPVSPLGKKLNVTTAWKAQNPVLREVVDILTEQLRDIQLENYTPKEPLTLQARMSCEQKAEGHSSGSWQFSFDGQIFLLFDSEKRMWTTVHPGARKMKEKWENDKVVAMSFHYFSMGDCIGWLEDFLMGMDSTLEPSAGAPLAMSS

ULBP1:Fc fusion protein (from UniProt Q9BZM6 26-216)
Mean fluorescence intensity [1]: 35

human NKG2D-Fc fusion protein (from UniProt P26718 73-216; P01857 99-330)
fluorescence above background (flow cytometry) (logabovebackground) [2]: > 2
fluorescence above background (flow cytometry) (logabovebackground) [3]: > 2
fluorescence above background (flow cytometry) (logabovebackground) [4]: > 2
fluorescence above background (flow cytometry) (logabovebackground) [5]: > 2

B1: ULBP4, full length, expressed on transfected CV-1 cells (ligand)
chain: HSLCFNFTIKSLSRPGQPWCEAQVFLNKNLFLQYNSDNNMVKPLGLLGKKVYATSTWGELTQTLGEVGRDLRMLLCDIKPQIKTSDPSTLQVEMFCQREAERCTGASWQFATNGEKSLLFDAMNMTWTVINHEASKIKETWKKDRGLEKYFRKLSKGDCDHWLREFLGHWEAMPEPTVSPVNASDIHWSSSSLPDRWIILGAFILLVLMGIVLICVWWQNGEWQAGLWPLRTS
notes: Full length cDNA in pDC409, expressed on CV-1 cells; The terminus was not determined for the cell-surface form itself
binding result (UL16-Fc fusion protein): no binding

B2: murine NKG2D-Fc fusion protein (Fc fusion, UniProt O54709 90-232, looked up)
chain: FKETFQPVLCNKEVPVSSREGYCGPCPNNWICHRNNCYQFFNEEKTWNQSQASCLSQNSSLLKIYSKEEQDFLKLVKSYHWMGLVQIPANGSWQWEDGSSLSYNQLTLVEIPKGSCAVYGSSFKAYTEDCANLNTYICMKRAV
notes: extracellular domain; Soluble protein made in CV-1 cells; not shown: hinge and Fc region of a modified human IgG1 (Fc mutein of Baum et al. 1994)
binding result [6]: no binding

B3
binding result (UL16-Fc fusion protein): no binding
